Results taken from paper PMC10823590.

Target: ST2 receptor (isolated protein used in ELISA and in the fluorescence emission assay) (UniProt Q01638)
Assay: fluorescence emission before and after incubation with the receptor; IL-33 analogues at 50 ug/mL, fluorescence emission measured before and after incubation with ST2 at 200 ug/mL, n = 3

“IL-33(6) (from UniProt O95760 1-270) (ligand)” gave a fold increase of fluorescence emission upon receptor binding of 4 fold.
